Numbering of substitutions follows the chain as printed.
How the values were obtained:
Assay in all cases: ELISA, antibody coated, OX40-ECD.His mutant supernatant; relative to silent alanine substitutions;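 further: captured OX40 mutant protein detected with HRP-labelled anti-His antibody, absorbance read-out, scaled to the mean signal of control mutants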
human OX40-ECD.His G70A = molecular target: T1, human OX40-ECD.His G70A (human, UniProt P43489 29-214)
T1 construct: extracellular domain; not shown: C-terminal His-tag
T1 sequence (looked up): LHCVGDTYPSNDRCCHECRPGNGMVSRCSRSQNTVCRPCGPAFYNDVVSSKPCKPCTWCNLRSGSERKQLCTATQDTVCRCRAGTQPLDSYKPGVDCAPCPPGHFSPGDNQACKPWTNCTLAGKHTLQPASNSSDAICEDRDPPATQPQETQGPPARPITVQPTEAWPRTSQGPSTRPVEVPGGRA

human OX40-ECD.His M52A = molecular target: T2, human OX40-ECD.His M52A (human, UniProt P43489 29-214)
T2 construct: extracellular domain; not shown: C-terminal His-tag
T2 sequence (looked up): T1 sequence (looked up) with M24A, A42G

human OX40-ECD.His S78A = molecular target: T3, human OX40-ECD.His S78A (human, UniProt P43489 29-214)
T3 construct: extracellular domain; not shown: C-terminal His-tag
T3 sequence (looked up): T1 sequence (looked up) with A42G, S50A

human OX40-ECD.His K120A = molecular target: T4, human OX40-ECD.His K120A (human, UniProt P43489 29-214)
T4 construct: extracellular domain; not shown: C-terminal His-tag
T4 sequence (looked up): T1 sequence (looked up) with A42G, K92A

human OX40-ECD.His H153A = molecular target: T5, human OX40-ECD.His H153A (human, UniProt P43489 29-214)
T5 construct: extracellular domain; not shown: C-terminal His-tag
T5 sequence (looked up): T1 sequence (looked up) with A42G, H125A

human OX40-ECD.His V53A = molecular target: T6, human OX40-ECD.His V53A (human, UniProt P43489 29-214)
T6 construct: extracellular domain; not shown: C-terminal His-tag
T6 sequence (looked up): T1 sequence (looked up) with V25A, A42G

human OX40-ECD.His Y72A = molecular target: T7, human OX40-ECD.His Y72A (human, UniProt P43489 29-214)
T7 construct: extracellular domain; not shown: C-terminal His-tag
T7 sequence (looked up): T1 sequence (looked up) with A42G, Y44A

human OX40-ECD.His W144A = molecular target: T8, human OX40-ECD.His W144A (human, UniProt P43489 29-214)
T8 construct: extracellular domain; not shown: C-terminal His-tag
T8 sequence (looked up): T1 sequence (looked up) with A42G, W116A

human OX40-ECD.His T113A = molecular target: T9, human OX40-ECD.His T113A (human, UniProt P43489 29-214)
T9 construct: extracellular domain; not shown: C-terminal His-tag
T9 sequence (looked up): T1 sequence (looked up) with A42G, T85A

human OX40-ECD.His Q60A = molecular target: T10, human OX40-ECD.His Q60A (human, UniProt P43489 29-214)
T10 construct: extracellular domain; not shown: C-terminal His-tag
T10 sequence (looked up): T1 sequence (looked up) with Q32A, A42G

Fold Change (human OX40-ECD.His G70A): 0.511 | Fold Change (human OX40-ECD.His M52A): 0.977 | Fold Change (human OX40-ECD.His S78A): 1 | Fold Change (human OX40-ECD.His K120A): 0.896 | Fold Change (human OX40-ECD.His H153A): 0.997 | Fold Change (human OX40-ECD.His V53A): 0.896 | Fold Change (human OX40-ECD.His Y72A): 0.384 | Fold Change (human OX40-ECD.His W144A): 0.881 | Fold Change (human OX40-ECD.His T113A): 0.784 | Fold Change (human OX40-ECD.His Q60A): 0.971
B1: 1.134.9-u1-IgG1L (antibody, V domains shown)
VH: QVQLQESGPGLVKPSGTLSLTCAVSGGSISSYNWWSWVRQPPGKGLEWIGEIYHGGNTNYNPSLKSRVTMSVDNSKNQFSLKLSSVTAADTAVYYCARAPGDWGGSPYFDFWGQGTLVTVSS
VL: SSELTQDPAVSVALGQTVRITCQGDNLRTYYASWYQQKPGQAPILLIYGRNKRPSGIPDRFSGSSSGNTASLTITGAQAEDEAAYYCNSRDSSGNPVVFGGGTKLTVL
notes: fully human IgG1, lambda

Source: US20210171647A1 (WUXI BIOLOGICS SHANGHAI, published 2021)
